In article PMC4364042 (Science (New York, N.Y.), 2014):
One block for each molecule: values may come before it.

What was measured:
[1] = target: E-cadherin/β-catenin complex (Mus musculus) (UniProt P09803); details: cited from earlier work
Dr αE-catenin = target: T1, Dr αE-catenin (Danio rerio (zebrafish), UniProt Q9PVF8 1-907); experiment: reconstitution of the complex on the coverslip, read by optical trap
T1 sequence (looked up): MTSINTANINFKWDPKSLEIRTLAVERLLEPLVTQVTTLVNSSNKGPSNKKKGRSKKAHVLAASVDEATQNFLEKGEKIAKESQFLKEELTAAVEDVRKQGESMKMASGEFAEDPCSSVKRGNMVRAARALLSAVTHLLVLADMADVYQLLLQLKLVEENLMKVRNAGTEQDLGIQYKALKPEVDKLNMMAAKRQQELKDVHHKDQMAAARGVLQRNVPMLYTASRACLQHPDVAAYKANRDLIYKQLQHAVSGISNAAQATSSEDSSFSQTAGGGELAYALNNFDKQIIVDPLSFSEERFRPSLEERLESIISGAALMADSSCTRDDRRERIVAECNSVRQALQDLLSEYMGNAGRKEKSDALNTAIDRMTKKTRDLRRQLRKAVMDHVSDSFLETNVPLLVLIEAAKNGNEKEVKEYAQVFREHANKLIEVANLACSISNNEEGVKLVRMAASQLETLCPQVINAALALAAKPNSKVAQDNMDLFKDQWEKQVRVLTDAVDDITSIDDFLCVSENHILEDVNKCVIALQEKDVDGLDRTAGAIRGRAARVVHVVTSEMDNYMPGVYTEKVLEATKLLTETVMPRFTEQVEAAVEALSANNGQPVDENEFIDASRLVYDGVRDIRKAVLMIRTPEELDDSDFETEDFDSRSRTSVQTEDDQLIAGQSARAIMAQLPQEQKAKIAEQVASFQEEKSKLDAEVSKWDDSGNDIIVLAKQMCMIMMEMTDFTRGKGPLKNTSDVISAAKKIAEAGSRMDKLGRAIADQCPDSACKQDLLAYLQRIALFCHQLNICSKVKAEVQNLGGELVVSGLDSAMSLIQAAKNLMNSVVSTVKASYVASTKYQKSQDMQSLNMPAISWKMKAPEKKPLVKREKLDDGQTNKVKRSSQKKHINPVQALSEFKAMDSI

Chain of E-cadherin/β-catenin complex (Mus musculus) (P09803 157-884, chain 1 of 2): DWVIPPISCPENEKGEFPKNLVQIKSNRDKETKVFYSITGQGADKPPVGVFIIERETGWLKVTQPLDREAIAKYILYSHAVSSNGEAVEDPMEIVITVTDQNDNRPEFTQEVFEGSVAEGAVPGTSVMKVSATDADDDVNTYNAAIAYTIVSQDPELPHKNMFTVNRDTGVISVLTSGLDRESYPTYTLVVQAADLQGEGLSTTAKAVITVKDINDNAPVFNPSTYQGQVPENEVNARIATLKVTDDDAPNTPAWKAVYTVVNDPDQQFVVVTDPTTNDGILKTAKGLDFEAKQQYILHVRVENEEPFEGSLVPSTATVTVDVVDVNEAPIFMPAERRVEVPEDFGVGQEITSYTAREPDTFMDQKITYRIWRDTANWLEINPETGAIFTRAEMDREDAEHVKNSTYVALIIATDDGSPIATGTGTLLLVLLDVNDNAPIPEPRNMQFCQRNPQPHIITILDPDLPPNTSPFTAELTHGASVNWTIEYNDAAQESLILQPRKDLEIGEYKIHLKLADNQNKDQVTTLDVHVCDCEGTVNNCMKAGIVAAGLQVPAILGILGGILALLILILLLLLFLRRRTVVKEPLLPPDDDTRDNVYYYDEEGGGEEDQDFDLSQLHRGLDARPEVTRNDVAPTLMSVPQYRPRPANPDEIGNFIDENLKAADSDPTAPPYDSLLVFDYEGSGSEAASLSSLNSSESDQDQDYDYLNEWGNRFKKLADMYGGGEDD
Chain of E-cadherin/β-catenin complex (Mus musculus) (Q02248 2-781, chain 2 of 2, further chain): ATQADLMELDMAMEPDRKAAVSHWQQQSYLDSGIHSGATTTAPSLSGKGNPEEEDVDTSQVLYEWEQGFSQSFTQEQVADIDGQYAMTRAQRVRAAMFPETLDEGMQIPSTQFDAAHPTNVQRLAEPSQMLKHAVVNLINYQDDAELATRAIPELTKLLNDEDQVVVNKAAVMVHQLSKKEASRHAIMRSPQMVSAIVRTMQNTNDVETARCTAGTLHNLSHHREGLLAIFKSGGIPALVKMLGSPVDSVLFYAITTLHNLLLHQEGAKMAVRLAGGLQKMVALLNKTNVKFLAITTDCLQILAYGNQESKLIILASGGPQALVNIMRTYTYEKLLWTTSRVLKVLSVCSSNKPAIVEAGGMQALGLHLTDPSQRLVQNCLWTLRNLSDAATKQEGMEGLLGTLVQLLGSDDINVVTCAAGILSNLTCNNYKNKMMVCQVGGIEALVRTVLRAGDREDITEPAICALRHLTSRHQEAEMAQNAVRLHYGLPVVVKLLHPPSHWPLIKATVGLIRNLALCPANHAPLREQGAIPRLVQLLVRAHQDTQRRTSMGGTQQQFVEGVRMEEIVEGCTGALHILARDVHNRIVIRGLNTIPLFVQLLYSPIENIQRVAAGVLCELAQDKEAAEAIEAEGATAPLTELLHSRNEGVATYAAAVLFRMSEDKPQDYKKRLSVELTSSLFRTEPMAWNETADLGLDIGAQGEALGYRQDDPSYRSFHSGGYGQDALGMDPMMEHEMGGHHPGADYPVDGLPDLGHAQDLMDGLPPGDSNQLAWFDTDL

Molecule: αE-catenin (from UniProt P26231)
Kd [1]: 1 nM

binding result (Dr αE-catenin): binds
B1: Dr β-catenin (natural protein, Danio rerio (zebrafish), UniProt F1QGH7 1-780, looked up)
chain: MATQSDLMELEMAMDPDRKAAVSHWQQQSYLDSGIHSGATTTAPSLSGKGNPEDDDVDNQVLYEWEQGFNQSFNQEQVADIDGQYAMTRAQRVRAAMFPETLDEGMQIPSTQFDSAHPTNVQRLAEPSQMLKHAVVNLINYQDDAELATRAIPELTKLLNDEDQVVVNKAAVMVHQLSKKEASRHAIMRSPQMVSAIVRTMQNTNDVETARCTSGTLHNLSHHREGLLAIFKSGGIPALVKMLGSPVDSVLFYAITTLHNLLLHQEGAKMAVRLAGGLQKMVALLNKTNVKFLAITTDCLQILAYGNQESKLIILASGGPQALVNIMRTYTYEKLLWTTSRVLKVLSVCSSNKPAIVEAGGMQALGLHLTDPSQRLVQNCLWTLRNLSDAATKQEGMEGLLGTLVQLLGSDDINVVTCAAGILSNLTCNNYKNKMMVCQVGGIEALVRTVLRAGDREDITEPAICALRHLTSRHQDAEMAQNAVRLHYGLPVVVKLLHPPSHWPLIKATVGLIRNLALCPANHAPLREQGAIPRLVQLLVRAHQDTQRRTSMGGTQQQFVEGVRMEEIVEGCTGALHILARDIHNRIVIRGLNTIPLFVQLLYSPIENIQRVAAGVLCELAQDKEAAEAIEAEGATAPLTELLHSRNEGVATYAAAVLFRMSEDKPQDYKKRLSVELTSSLFRTEPMTWNETGDLGLDIGAQGEPLGYRQDDPSYRSFHSGGYGQDAMGMDPMMEHEMAGHHPGPDYPVDGLPDLGHTQDLIDGLPPGDSNQLAWFDTDL
